In paper PMC10589346, “Structural basis for recruitment of TASL by SLC15A4 in human endolysosomal TLR signaling” (Nature Communications, 2023):

Key:
[1] = target: T1, human SLC15A4 with C-terminus flag-tag (co-expressed with TASL(1–20)-EGFP for cryo-EM) (human, UniProt Q8N697 1-577, N-glycosylation at N436); test: cryo-EM structure; SLC15A4-Flag and TASL(1–20)-EGFP-twin Strep co-expressed in HEK293F, complex purified by Strep-Tactin and SEC; 25 mM HEPES pH 7.4, 150 mM NaCl, 0.003% LMNG, 0.0003% CHS; 10–15 mg/ml; 3.03 Å, no symmetry imposed; settings: both partners purified
T1 construct: human SLC15A4 (solute carrier family 15 member 4, PHT1), codon-optimized full-length cDNA, Uniprot Q8N697; pcDNA3.1 vector; residues 1–31 not visible in the map; also called PHT1; Solute carrier family 15 member 4; source: HEK293F, co-transfected with TASL(1–20)-EGFP, complex purified (Strep-Tactin, SEC) in LMNG/CHS; not shown: Flag, C-terminal, kept

[2] = target: the molecule itself; test: cryo-EM structure; apo SLC15A4 (twin Strep-tag) from HEK293F in LMNG/CHS micelles; 25 mM HEPES pH 7.4, 150 mM NaCl; monomeric and dimeric particles found, dimer solved at 2.93 Å
[3] = target: the molecule itself; test: cryo-EM structure; SLC15A4-ALFA tag co-expressed with ALFA nanobody in HEK293F, complex purified (Strep-Tactin, SEC) in LMNG/CHS; monomeric and dimeric particles found, monomer solved at 3.25 Å

T1 sequence (Q8N697 whole entry, the tested form may be a part): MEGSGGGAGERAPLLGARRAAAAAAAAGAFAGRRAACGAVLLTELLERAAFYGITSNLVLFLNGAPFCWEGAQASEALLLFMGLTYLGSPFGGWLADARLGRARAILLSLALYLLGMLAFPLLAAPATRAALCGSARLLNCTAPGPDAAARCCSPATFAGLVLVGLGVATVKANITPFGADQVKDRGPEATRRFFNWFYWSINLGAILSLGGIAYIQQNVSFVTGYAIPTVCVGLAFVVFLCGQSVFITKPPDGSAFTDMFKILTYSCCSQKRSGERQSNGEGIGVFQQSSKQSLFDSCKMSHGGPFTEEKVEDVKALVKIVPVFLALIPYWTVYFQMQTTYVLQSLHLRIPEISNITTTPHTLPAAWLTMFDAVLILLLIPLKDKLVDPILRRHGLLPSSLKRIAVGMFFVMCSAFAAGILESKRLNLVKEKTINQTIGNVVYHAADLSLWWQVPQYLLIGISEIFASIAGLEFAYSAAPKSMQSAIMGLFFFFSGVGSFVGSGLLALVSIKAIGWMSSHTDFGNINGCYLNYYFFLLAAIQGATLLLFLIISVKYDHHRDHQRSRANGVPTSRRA

B1: TASL(1–20)-EGFP with C-terminus twin Strep-tag (domain or fragment, human, UniProt Q9HAI6 1-20, looked up)
chain: MLSEGYLSGLEYWNDIHWSC
notes: pCAG vector; also called CXorf21; source: HEK293F, co-transfected with SLC15A4-Flag, complex purified (Strep-Tactin, SEC) in LMNG/CHS; not shown: EGFP, C-terminal, kept; twin Strep-tag, C-terminal, kept
stoichiometry N [1]: 1

B2: human full-length SLC15A4 with C-terminus tandem twin Strep-tag (natural protein)
chain: not shown
modifications: N-glycosylation at N436
notes: human SLC15A4 (solute carrier family 15 member 4, PHT1), codon-optimized full-length cDNA, Uniprot Q8N697; also called apo SLC15A4; C-terminal strep-tagged SLC15A4; source: HEK293F, transfected, purified (Strep-Tactin, SEC) in LMNG/CHS; also co-expressed in HEK293F with TASL(1–20&207–301)-Flag; not shown: twin Strep-tag, C-terminal, kept
stoichiometry N [2]: 2

B3: human SLC15A4 with the 253–303 residues replaced by an ALFA tag (natural protein)
chain: not shown
modifications: N-glycosylation at N436
notes: human SLC15A4, Uniprot Q8N697, from the start to residue 252; ALFA tag, put in place of residues 253–303 (loop between TM6 and TM7); human SLC15A4, Uniprot Q8N697, from residue 304 to the end; The complex was purified on Strep-Tactin by a 'similar protocol'; also called ALFA tagged SLC15A4; SLC15A4-ALFA tag; source: HEK293F, co-transfected with ALFA nanobody, complex purified (Strep-Tactin, SEC) …
binding result [3]: binds
